# Experimental data as given in publication PMC7192615, “Structure specific recognition of telomeric repeats containing RNA by the RGG-box of hnRNPA1”.
# Key:
# [1] = molecular target: UP1 (UniProt P09651-2 1-196); assay: ITC; 100 mM KCl; ITC/CD: 20 mM Tris pH 8.0, 100 mM KCl, 25 C; NMR: 10 mM potassium phosphate pH 6.5, 100 mM KCl, 298 K (10% D2O for HSQC); details: protein: recombinant, tags: C-terminal 6xHis
# [2] = molecular target: T1, UP1+RGG (UniProt P09651-2 1-249); assay: as above; details: protein: recombinant, tags: C-terminal 6xHis
# T1 sequence (P09651 1-249): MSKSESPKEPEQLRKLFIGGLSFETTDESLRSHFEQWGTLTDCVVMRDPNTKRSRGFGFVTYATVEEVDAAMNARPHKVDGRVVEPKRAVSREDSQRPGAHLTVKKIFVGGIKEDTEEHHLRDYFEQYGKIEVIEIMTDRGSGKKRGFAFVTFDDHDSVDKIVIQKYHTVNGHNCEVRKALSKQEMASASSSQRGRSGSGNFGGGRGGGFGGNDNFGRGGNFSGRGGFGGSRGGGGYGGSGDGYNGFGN
# [3] = molecular target: T2, RGG-box (isolated) (UniProt P09651-2 197-249); assay: NMR HSQC CSP titration (global fit); 100 mM KCl; ITC/CD: 20 mM Tris pH 8.0, 100 mM KCl, 25 C; NMR: 10 mM potassium phosphate pH 6.5, 100 mM KCl, 298 K (10% D2O for HSQC); details: protein: recombinant; tags: GST removed by TEV; intramolecular parallel G4
# T2 sequence (P09651 197-249): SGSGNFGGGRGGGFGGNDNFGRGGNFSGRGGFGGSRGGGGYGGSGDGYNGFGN
# [4] = molecular target: T1, UP1+RGG; assay: ITC; 100 mM KCl, 20% PEG 200; ITC/CD: 20 mM Tris pH 8.0, 100 mM KCl, 25 C; NMR: 10 mM potassium phosphate pH 6.5, 100 mM KCl, 298 K (10% D2O for HSQC); details: protein: recombinant; tags: C-terminal 6xHis; intramolecular parallel G4
# [5] = molecular target: T2, RGG-box (isolated); assay: ITC; 100 mM KCl; ITC/CD: 20 mM Tris pH 8.0, 100 mM KCl, 25 C; NMR: 10 mM potassium phosphate pH 6.5, 100 mM KCl, 298 K (10% D2O for HSQC); details: protein: recombinant; tags: GST removed by TEV; intramolecular parallel G4
# [6] = parallel G4 dimer of 2 strands, two loops
# [7] = parallel G4 tetramer of 4 strands, no loops
# Sequence of UP1 (P09651 1-196): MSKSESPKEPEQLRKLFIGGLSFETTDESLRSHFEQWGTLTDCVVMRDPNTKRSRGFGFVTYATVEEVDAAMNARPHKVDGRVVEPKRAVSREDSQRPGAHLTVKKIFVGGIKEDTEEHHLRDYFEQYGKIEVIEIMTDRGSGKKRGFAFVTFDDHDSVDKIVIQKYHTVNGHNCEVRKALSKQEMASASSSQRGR
binder,measurement,setting,value
UUAGGGUUAGGG (structured_RNA) [TERRA-12],Kd,[1]; [6],2040 ± 470 nM
same,Kd,[2]; [6],1070 ± 140 nM
UUAGGG (structured_RNA) [TERRA-6],Kd,[1]; [7],2020 ± 170 nM
same,Kd,[2]; [7],2380 ± 230 nM
GAGUAACCCGUAUCGUGA (ssRNA) [ssRNA-18],Kd,"[1]; single strand, 18 nt",2370 ± 490 nM
same,Kd,"[2]; single strand, 18 nt",2280 ± 260 nM
UUAGGGUUAGGGUUAGGGUUAGGG (structured_RNA) [TERRA-24],Kd,[3],11000 ± 1500 nM
same,Kd,[4],3000 ± 550 nM
same,Kd,[1]; intramolecular parallel G4,1710 ± 170 nM
same,Kd,[5],9000 ± 4300 nM
same,Kd,[2]; intramolecular parallel G4,920 ± 170 nM
